The values that follow come from paper PMC1065253.

Numbering of substitutions follows the chain as printed.

The target of one data set is T1, SeqA(E5K) (Escherichia coli, UniProt P0AFY8 1-181, E5K).
T1 sequence: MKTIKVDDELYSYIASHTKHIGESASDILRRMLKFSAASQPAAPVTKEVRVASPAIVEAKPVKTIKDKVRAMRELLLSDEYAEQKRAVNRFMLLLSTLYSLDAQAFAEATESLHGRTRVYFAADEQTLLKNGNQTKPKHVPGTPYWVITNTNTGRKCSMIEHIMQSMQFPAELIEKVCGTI
Briefly: EMSA. Background: In EMSA bound probe runs differently from free probe, usually more slowly.

For another data set, the target named is T2, SeqA(E9K) (Escherichia coli, UniProt P0AFY8 1-181, E9K).
T2 sequence: T1 sequence with K5E, E9K
Briefly: EMSA.

Another data set has as its target T3, SeqA(D8K) (Escherichia coli, UniProt P0AFY8 1-181, D8K).
T3 sequence: T1 sequence with K5E, D8K
Briefly: EMSA.

In the next data set the target is T4, SeqA(D7K) (Escherichia coli, UniProt P0AFY8 1-181, D7K).
T4 sequence: T1 sequence with K5E, D7K
Briefly: EMSA.

The target of another data set is T5, SeqA(E5,9K) (Escherichia coli, UniProt P0AFY8 1-181, E5K;E9K).
T5 sequence: T1 sequence with E9K
Briefly: EMSA.

The target in data set [1] is T6, SeqA (Escherichia coli, UniProt P0AFY8 1-181).
T6 sequence: T1 sequence with K5E
The experiment in a line: AFM.

In data set [2] the target is T6, SeqA. Briefly: AFM. This is another data set of the same source.
The target of data set [3] is T6, SeqA. Briefly: EMSA.
The target of another data set is T7, SeqA(T18G) (Escherichia coli, UniProt P0AFY8 1-181, T18G).
T7 sequence: T1 sequence with K5E, T18G
The experiment in a line: EMSA.

B1: 75 bp, two hemi-sites, 21 bp spacing (dsDNA)
DNA 1: CTGGGTATTAAAAAGAAGATCTATTTATGTTCAGTTCTGATCTGTTCTGTTCTCTTATTAGGCTCGCACTGCCCT
DNA 2: AGGGCAGTGCGAGCCTAATAAGAGAACAGAACAGATCAGAACTGAACATAAATAGATCTTCTTTTTAATACCCAG
modifications: hemi-methylated GATC (N6-methyladenine on one strand; which strand not stated)
Turning to B1, the binding result with SeqA(E5K) is “binds”; with SeqA(E9K), “binds”; in the data set with SeqA(D8K), “binds”; in the data set with SeqA(D7K), “no binding”; in the data set with SeqA(E5,9K), “no binding”; with SeqA [1], “binds”.

B2: 75 bp, two hemi-sites, 31 bp spacing (dsDNA)
DNA 1: B1 DNA 1 with A40T, T50A
DNA 2: B1 DNA 2 with A26T, T36A
modifications: hemi-methylated GATC (N6-methyladenine on one strand; which strand not stated)
With B2, in the data set with SeqA [2], the binding result was “binds”.

B3: 75 bp, two hemi-sites, 11 bp spacing (dsDNA)
DNA 1: B1 DNA 1 with T30A, A40T
DNA 2: B1 DNA 2 with T36A, A46T
modifications: hemi-methylated GATC (N6-methyladenine on one strand; which strand not stated)
As to B3, the binding result with SeqA [2] is given as “binds”.

B4: 75 bp, two hemi-sites, 16 bp spacing (Fig 2E) (dsDNA)
DNA 1: B1 DNA 1 with T35A, A40T
DNA 2: B1 DNA 2 with T36A, A41T
modifications: hemi-methylated GATC (N6-methyladenine on one strand; which strand not stated)
Take B4: the binding result in the data set with SeqA [2] is “binds”.

B5: 75 bp, two hemi-sites, 16 bp spacing (Fig 3A) (dsDNA)
DNA 1: B1 DNA 1 with G29T, T31A, C32G, T35A, A40T, G44A, C47G, T50A, C63A
DNA 2: B1 DNA 2 with G13T, A26T, G29C, C32T, T36A, A41T, G44C, A45T, C47A
modifications: hemi-methylated GATC (N6-methyladenine on one strand; which strand not stated)
Turning to B5, the binding result with SeqA [3] and with SeqA(T18G) was “binds” in each case.
